According to the nanobody polyreactivity screen of Harvey et al. (2022):

Experiment: yeast display, Sf9 membrane polyspecificity reagent, FACS + sequencing; frameworks hold sequencing errors
How it was run: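 A nanobody's polyreactivity label depends on the gate it was sorted from. Yeast display cells were stained with 10% biotinylated, detergent-solubilized Sf9 membrane reagent for 1 hour at 4 °C, enriched on streptavidin microbeads and sorted by FACS. The low and high (top ~1%) gates were set on anti-HA fluorescence for expression and streptavidin fluorescence for reagent binding.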

Sequence | polyreactivity (PSR sort gate)
QVQLVESGGGLVQAGGSLRLSCAASGSTFWLYAMGWYRQAPGKERELVAAIRSGDRTNYADSVKGRFTISRDNAKHTVYLQMNSLKPEDTAVYYCAVRRWGTSFVEDDYWGQGTQVTVSS | low polyreactivity
QVQLVESGGGLVQAGGSLRLSCAASGSTFWPNAMGWYRQAPGKERELVAAITGGGGTNYADSVKGRFTISRDNAKNTVYLQMNSLKPEDTAVYYCAAKKVNSRSHVKYYYWGQGTQVSVSS | high polyreactivity
QVQLVESGGGLVQAGGSLRLSCAASGSTFWPYAMGWYRQAPGKERELVAAITSSGGSTYYADSVKGRFTISRDNAKNTVYLQMNSLKPEETAVYYCAADWSNLGAYDYWGQGTQVTVSS | low polyreactivity
QVQLVESGGGLVQAGGSLRLSCAASGSTFWPYTMGWYRQAPGKERELVAAISLSGGSTYYADSVKGRFTISRDNAKNTVYLQMNSLKPEDTAVYYCAAEGGYQNWHYLYDYWGQGTQVTVSS | low polyreactivity
QVQLVESGGGLVQAGGSLRLSCAASGSTFWSYTMGWYRQAPGKERELVARITGRGGSTYYADSVKGRFTISRDNAKNTVYLLMNSLKPEDTAVYYCAAGGGRYGFYRFDYWGQGTQVTVSS | low polyreactivity
QVQLVESGGGLVQAGGSLRLSCAASGSTFWTNAMGWNRQAPGKERELVATITYSTGTYADSVKGRFTISRDNAKNTVYLQMNSLKPEDTAVYYCAATGVPGWVGFDYWGQGTQVSVSS | low polyreactivity
QVQLVESGGGLVQAGGSLRLSCAASGSTFWVNALGWSRQAPGKERELVAVITVTGSRTYYADSVKGRFTISRDNAKNTVYLQMNTLKPEDTAVYYCAADRRRVQYKFDYWGQGTQVTVSS | low polyreactivity
QVQLVESGGGLVQAGGSLRLSCAASGSTFWVNAMGWYRQAPGKERELVAAISNSGGSTYYADSVKGRFTISRDNAKNTVYLQMNSLKPEDTAVYYCAAAGGVDYDYWGQGTQVTVSS | low polyreactivity
QVQLVESGGGLVQAGGSLRLSCAASGSTFWVNAMGWYRQAPGKERELVAAITVRGTSTYYADSVKGRFTISRDNAKNTVYLQMNSLKPEDTAVYYCAKGSLGSTRYYYWGQGTQVTVSS | low polyreactivity
QVQLVESGGGLVQAGGSLRLSCAASGSTFWVYGMGWSRQAPGKERELVADITSIGGSTYYADSVKGRFTISRDNAKNTVYLQMNSLKPEDTAVYYCAARETWYPYYWMGYWGQGTQVTVSS | high polyreactivity
QVQLVESGGGLVQAGGSLRLSCAASGSTFWYNDMGWYRQAPGKESELVAAITWTGDGTYYADTVKGRFTISRDNAKNTVYLQMNSLKPEDTAVYYCAAAYFQWSTSIVGLDAWYDYWGQGTQVTVSS | low polyreactivity
QVQLVESGGGLVQAGGSLRLSCAASGSTFWYYAMGWYRQAPGKEREFVAAITTSAGRTYYADSVKGRFTISRDNAKNTVYLQMNSLKPEDTAVYYCAAEPRQYWEYNYWGQGTQVTVSS | high polyreactivity
QVQLVESGGGLVQAGGSLRLSCAASGSTFWYYAMGWYRQAPGKERELVAAINGSGSRTYYADSVKGRFTISRDNAKNTVYLQMNSLKPEDTAVYYCAAGSLGRYYFKLDYWGQGTQVTVSS | high polyreactivity
QVQLVESGGGLVQAGGSLRLSCAASGSTFWYYAMGWYRQAPGKERELVAAISVRGGSTYYADSVKGRFTISRDNAKNTVYLQMNSLKPEETGVYYCAAVSYKSHRYDYWGQGTQVTVSS | high polyreactivity
QVQLVESGGGLVQAGGSLRLSCAASGSTFWYYAMGWYRQAPGKERELVAAITRGASTNYADSVKGRFTISRDNAKNTVYLQMNSLKPEDTAVYYSAAGPARWKGYYWGQGTQVTVSS | high polyreactivity
QVQLVESGGGLVQAGGSLRLSCAASGSTFWYYAMGWYRQAPGKERELVAAITSSGSTYYADSVKGRFTISRDNAKNTVYLQMNSLKPEDTAVYYCAAEQWYGYASYDYWGQVTQVTVSS | high polyreactivity

Sequence | polyreactivity (PSR sort gate)
QVQLVESGGGLVQAGGSLRLSCAASGSTFWYYAMGWYRQAPGKERELVADITISGGSTYYSDSVKGRFTISRDNAKNTVYLQMNSLKPEDTAVYYCATDDTHRVGWFDYWGQGTQVTVSS | low polyreactivity
QVQLVESGGGLVQAGGSLRLSCAASGSTFWYYAMGWYRQAPGKERELVADITYSGVSTYYADSVKGRFTISRDNAKNTVYLQMNSLKPEDTAVYYCNADWGSVNGYSGYYYWGQGTQVNVSS | low polyreactivity
QVQLVESGGGLVQAGGSLRLSCAASGSTFWYYAMGWYRQAPGKERELVASITYSGGSTYYADSVKGRFTISRDNAKNTVYLQMNSLKPEDSAVYYCAAEGYYSNYHYWGQGTQVTVSS | low polyreactivity
QVQLVESGGGLVQAGGSLRLSCAASGSTFWYYGMGWYRQAPGKERELVAAITRGGSTYYADSVKGRFTISRDNAKNTVYLQMNSLKPEDTAVYYCAARPRYRAPYGYWGQGTQVTVSS | high polyreactivity
QVQLVESGGGLVQAGGSLRLSCAASGSTFWYYGMGWYRQAPGKERELVAAITRGGSTYYADSVKGRFTISRDNAKNTVYLQMNSLKPEDTAVYYCARAPSYSTGVSIRDYWGQGTQVTVSS | high polyreactivity
QVQLVESGGGLVQAGGSLRLSCAASGSTFYAKAMGLYRQAPGKEREFVAVITQSGGSTYYADSVKGRFTISRDNAKNTVYLQMNSLKPEDTAVYYCAKTHYRRSLSMYYWGQGTQVTVSS | low polyreactivity
QVQLVESGGGLVQAGGSLRLSCAASGSTFYANAMGWYRQAPGKERELVAAIDWSGATTYYADSVKGRFTISRDTAKNTVYLQMNSLKPEDTAVYYCAAYRYRPHVHRYYRYDYWGQGTQVTVSS | high polyreactivity
QVQLVESGGGLVQAGGSLRLSCAASGSTFYAYAMGWYRQAPGKERELVAAITSRGGSTYYADSVKGRFTISRDNAKYTVYLELISLKPEDTAVYYCDARTCWWSRYYGSWGQGTQVTVSS | high polyreactivity
QVQLVESGGGLVQAGGSLRLSCAASGSTFYAYTMGWYRQAPGKARELFGTISSSGGRTNYADSVKGRFTISRDNAKNTVYLQMNSLKPEDTAVYYCAARSRVRNLVNGYTGLWYDYWGQGTQVTVSS | high polyreactivity
QVQLVESGGGLVQAGGSLRLSCAASGSTFYDNAMGWYRQAPGKERELVASIRSGGSTKYADSVKGRFTISRDNAKNTVYLQMNSLKPEDTAVYYCATAFIVPFPGSDYWGQGTQVTVSS | low polyreactivity
QVQLVESGGGLVQAGGSLRLSCAASGSTFYDYAMGWYRQAPGKERELVAAINGNGDSTYYADSVKGRFTISRDNAKNTVYLQMNSLKPEDTAVYYCAASGYRRYYGYDYWGQGTQVTVSS | low polyreactivity
QVQLVESGGGLVQAGGSLRLSCAASGSTFYDYAMGWYRQAPGKERELVASISISGGSTYADSVKGRFTISRDNAKNTVYLQMNSLKPEDTAVYYCAADSWGIGYGPDYEYWGQGTQVTVSS | low polyreactivity
QVQLVESGGGLVQAGGSLRLSCAASGSTFYDYAMGWYRQAPGKERELVASISISGGSTYADSVKGRFTISRDNAKNTVYLQMNSLKPEDTAVYYCNAKNYSWDDYYWVPDYEYWGQGTQVTVSS | low polyreactivity
QVQLVESGGGLVQAGGSLRLSCAASGSTFYDYVMGWYRQAPGKERELVAAITGDGTTDYADSVKGRFTISRDNAKNTVYLQMNSLKPEDTAVYYCNADISLDYDYWGQGTQVTVSS | low polyreactivity
QVQLVESGGGLVQAGGSLRLSCAASGSTFYENAMGWYRQAPGKERELVAAITWSGGRTYYADSVKGRFTISRDNAKNTVYLQMNSLKPEDTAVYYCNARARSRKFYYWGQGTQVTVSS | high polyreactivity
QVQLVESGGGLVQAGGSLRLSCAASGSTFYFNAMGWYRQAPGKEREFVAAITYSGGSTNYADSVKGRFTISRDNAKNTVYLQMNSLKPEDTAVYYCAARRYSYYYWYDYWGQGTQVTVSS | high polyreactivity
